The values that follow come from patent US20240361316A1 (ORASURE TECHNOLOGIES, published 2024).

This assay concerns the target recombinant SARS-CoV-2 Spike 1 subunit (S1), Alpha S1 construct 1 (SARS-CoV-2 (WHO Alpha (WT) variant, …, UniProt P0DTC2 14-674)).

B1: recombinant biotinylated human angiotensin-converting enzyme 2 (ACE2-biotin), construct hACE-GS-6xHIS (receptor)
chain: STIEEQAKTFLDKFNHEAEDLFYQSSLASWNYNTNITEENVQNMNNAGDKWSAFLKEQSTLAQMYPLQEIQNLTVKLQLQALQQNGSSVLSEDKSKRLNTILNTMSTIYSTGKVCNPDNPQECLLLEPGLNEIMANSLDYNERLWAWESWRSEVGKQLRPLYEEYVVLKNEMARANHYEDYGDYWRGDYEVNGVDGYDYSRGQLIEDVEHTFEEIKPLYEHLHAYVRAKLMNAYPSYISPIGCLPAHLLGDMWGRFWTNLYSLTVPFGQKPNIDVTDAMVDQAWDAQRIFKEAEKFFVSVGLPNMTQGFWENSMLTDPGNVQKAVCHPTAWDLGKGDFRILMCTKVTMDDFLTAHHEMGHIQYDMAYAAQPFLLRNGANEGFHEAVGEIMSLSAATPKHLKSIGLLSPDFQEDNETEINFLLKQALTIVGTLPFTYMLEKWRWMVFKGEIPKDQWMKKWWEMKREIVGVVEPVPHDETYCDPASLFHVSNDYSFIRYYTRTLYQFQFQEALCQAAKHEGPLHKCDISNSTEAGQKLFNMLRLGKSEPWTLALENVVGAKNMNVRPLLNYFEPLFTWLKDQNKNSFVGWSTDGGGGSGGGGSHHHHHHH
modifications: biotinylated, 1-10 biotins per ACE2 [mole:mole]; positions not given
In the case of B1, the EC50 is 0.5 nM.

For orientation: EC50 means the concentration giving half of the maximal effect.
